The values below come from the RNAGym collection of RNA variant scans (doi:10.7554/elife.90254).

B1: OR4K15 (parent)
chain: GUUAACGGUCAUAGGCCAUGGAAACUAGGAGCACCAUUUCGCUGCCAGUGAAGAAAUGAACAAAGAAAAUCUGGGCCAGGCAGGCAUCAAAAGAAAUAGUCUUGCGCUCAACCAGAAAGUCUGUAAUCAUUUUAAGGGUA

In this data set the parent is B1. The experiment in a line: self-cleavage, relative activity (ratio to wild type); higher = more cleavage; in vitro, sequencing; the parent is a self-cleaving ribozyme.
On to A91G U103C, for which the self-cleavage stood at 0.46.

As to A94G A140U, the self-cleavage amounted to 0.72. On to A92C U103C, for which the self-cleavage came out at 0.93.

A91G C128A: the self-cleavage was 0.44. For A90G U132A, the self-cleavage was 0.56.

Consider A90G U132C, for which the self-cleavage came to 1.12. As for A94G A95U, the figure is 2.66; as for A91G A95C, 0.94; as for A91G A95G, 1.76. With A94G A98G, the self-cleavage was 0.27. On to A91G C112U, for which the self-cleavage came out at 0.01. As to A95G C113U, the self-cleavage came to 0.15. With A91G A134G, the self-cleavage is 0.97. Turning to A90U U108C, the self-cleavage came to 0.01. For the variant A95C A110G, the self-cleavage was determined as 0.16.

Regarding A91G G138A, the self-cleavage amounted to 0.95. With A94G U108A, the self-cleavage worked out at 0.01. As for A95G A135U, the self-cleavage came out at 1.45. Consider A95G A135C, for which the self-cleavage worked out at 2.68. As for A95G A135G, the figure is 2.42. With A89U A125G, the self-cleavage was 0.77. For the variant G93C A98G, the self-cleavage was found to be 1.57.

With A90G G106C, the self-cleavage was 0.

As to A89U C109G, the self-cleavage was found to be 0.01. Consider A92G G119A, for which the self-cleavage amounted to 2.3. A92G A126C: the self-cleavage was found to be 0.94. With A92G U132G, the self-cleavage is 1.04. In the case of A92G U132A, the self-cleavage came out at 1.23. In the case of G93A A126G, the self-cleavage was determined as 2.16. For the variant A90G C101U, the self-cleavage worked out at 0.21.

A91G A125G: the self-cleavage was determined as 0.16. For A92U A118G, the self-cleavage is 1.02. In the case of A89G U127C, the self-cleavage was 1.03. With A95G U97C, the self-cleavage stood at 1.23. As for A89G A116C, the self-cleavage stood at 0.22. As for A94U A98G, the figure is 1.06; as for A91G A114C, 0.02; as for A91G G99A, 0.21. On to G93A A111G, for which the self-cleavage was determined as 0.04. For the variant A94U C107U, the self-cleavage stood at 0.01. As for A90G C112G, the figure is 0; as for A90U A114U, 0.04.

A94G: the self-cleavage was 1.39. On to A94U, for which the self-cleavage turned out to be 1.08. On to A94C, for which the self-cleavage worked out at 1.69. As for A89G A110U, the figure is 0.77. Consider A89G A135U, for which the self-cleavage came out at 1.15.

For A89G A135G, the self-cleavage worked out at 1.68.

With A89U U102C, the self-cleavage amounted to 1.9. For A92U U131C, the self-cleavage was 1.36.

On to A91U A111U, for which the self-cleavage is 0.23. Regarding A91G U102A, the self-cleavage was determined as 0.67.

For the variant A91G A118C, the self-cleavage was determined as 0.47. As for A91G A118U, the figure is 0.53. Consider A89G U139G, for which the self-cleavage came out at 1.4. As for A89U U124C, the figure is 1.38; as for A95G U120C, 1.82; as for A95G U120A, 2.78. As for A94U U127C, the figure is 1.21; as for A94G A111G, 0.03; as for A89G A129G, 1.06. As for A90U A91G, the figure is 1.95. For the variant A92G U103G, the self-cleavage was 0.03.

With A92G U103C, the self-cleavage was found to be 0.6. For A94G A129G, the self-cleavage is 1.29. As to A92G C101U, the self-cleavage is 0.12. As for A94G U130C, the figure is 1.16; as for A94G U130A, 1.41; as for A91G U97A, 1.05. As for A92G A135U, the self-cleavage is 2.03. Take A90G A125U: the self-cleavage worked out at 1.7. Regarding A95G A125G, the self-cleavage came to 1.02. Turning to A95G C105U, the self-cleavage was determined as 0.43.

Consider A95G C105G, for which the self-cleavage amounted to 0.03. As for A92G A117U, the figure is 0.8; as for A92G A117G, 1.47; as for A90G A92G, 1.01. Turning to A94G U103C, the self-cleavage amounted to 0.69. Turning to A94G U103G, the self-cleavage came out at 0.03. A94G U103A: the self-cleavage was found to be 0.39.

For A91G A111G, the self-cleavage is 0.01. Take A89U G115U: the self-cleavage is 0.56. Take A89G C113G: the self-cleavage worked out at 0.01.

A90U U133C: the self-cleavage came out at 1.61.

For the variant A91G G93A, the self-cleavage was 1.82. Consider A94U A111G, for which the self-cleavage was found to be 0.02. A94U A111U: the self-cleavage turned out to be 0.12. On to A89U U120C, for which the self-cleavage worked out at 0.5. With A89G U131C, the self-cleavage was 0.59. Take A92C A129G: the self-cleavage amounted to 1.66.

For the variant A90G A126G, the self-cleavage is 0.95. Take A94G C101A: the self-cleavage stood at 0.3. Regarding A90G A135U, the self-cleavage stood at 0.39. As for A90G A135C, the figure is 0.91; as for A92C U124C, 0.52. On to A92U G123U, for which the self-cleavage worked out at 2.07. With A90G A129U, the self-cleavage amounted to 0.35. As to A90G A129G, the self-cleavage came to 0.22.

For the variant A95G U103G, the self-cleavage is 0.06. A95G U103C: the self-cleavage was 1.25. As for A90U A135G, the figure is 2.04; as for A94U A125C, 1.08. Turning to A91U A94G, the self-cleavage came to 1.54.

In the case of A92G A134U, the self-cleavage stood at 2.03.

Consider A94C A96G, for which the self-cleavage worked out at 0.94.

With A92G A129G, the self-cleavage came out at 0.74. As to A90G C107A, the self-cleavage turned out to be 0.02.

Regarding A90U U100A, the self-cleavage stood at 0.15. Take A90U U100C: the self-cleavage turned out to be 2.02. Consider A92C A111G, for which the self-cleavage worked out at 0.03.

Take A89U A111U: the self-cleavage worked out at 0.13. Consider A89U A111G, for which the self-cleavage stood at 0.03. As for A90U A92G, the self-cleavage came out at 1.38. As for A89G U102C, the self-cleavage worked out at 1.68. As for A90G A95G, the figure is 2.02. A92G U102C: the self-cleavage was 1.8. With A92G U102A, the self-cleavage was determined as 0.61. A92G U102G: the self-cleavage worked out at 0.61.

Regarding A90C A118G, the self-cleavage was 1.04.

Turning to A90G U103A, the self-cleavage was 0.26.

In the case of A92G A98G, the self-cleavage was 0.74. For the variant A90G U139C, the self-cleavage stood at 1.2. In the case of A91U A117G, the self-cleavage was determined as 1.88. For the variant A89G G119C, the self-cleavage amounted to 1.62. A89G C105U: the self-cleavage worked out at 0.07. As for A89G C101U, the self-cleavage was 0.29. As for A89G A126G, the self-cleavage came out at 0.6.

Consider A94U A129U, for which the self-cleavage amounted to 1.22. Regarding A95G U139A, the self-cleavage was 2.01. For A95G U139G, the self-cleavage was determined as 2.68. On to A95G U139C, for which the self-cleavage stood at 2.07. On to A94C A116U, for which the self-cleavage was 0.18.

A92G A110G: the self-cleavage amounted to 0.17.

Consider A92U A114G, for which the self-cleavage stood at 0.17. Take A92U A114U: the self-cleavage turned out to be 0.14.

For the variant A91U A135U, the self-cleavage turned out to be 1.6.

Take A94C U100C: the self-cleavage was 2.31. As for A94U A116C, the figure is 0.07; as for A94U A116G, 0.48. In the case of A92G U97C, the self-cleavage amounted to 1.57.

With A89U C121U, the self-cleavage was found to be 2.24. On to A94G A134U, for which the self-cleavage was 1.58. Take A94G A116C: the self-cleavage stood at 0.24. On to A94G A116G, for which the self-cleavage was found to be 0.39. Regarding A94G A116U, the self-cleavage is 0.38. As for A92C A96G, the figure is 1.73.

In the case of A89U G119A, the self-cleavage amounted to 2.37. Regarding A91U A125G, the self-cleavage amounted to 0.38. Regarding A91U U97C, the self-cleavage was 2.02. As for A91U U97A, the figure is 2.19. Consider G93U A134G, for which the self-cleavage was 1.18.

In the case of A89U U122A, the self-cleavage amounted to 0.6. As for A95U A117G, the figure is 2.29; as for A91G U122C, 0.42; as for A89U U132A, 1.35.

On to A89U U132C, for which the self-cleavage was determined as 1.64. With A90G U120C, the self-cleavage worked out at 0.58. For A90G A110U, the self-cleavage turned out to be 0.94. As for A91G C105A, the figure is 0.03; as for A91G C105G, 0.01. Consider A95U A116G, for which the self-cleavage amounted to 1.

As to A90G G137C, the self-cleavage came out at 1.19. For the variant A91C A98G, the self-cleavage came out at 0.56. As for A89U A90G, the self-cleavage amounted to 1.48. Consider A90G A111G, for which the self-cleavage was determined as 0.02. For A92G U131C, the self-cleavage was determined as 0.49. Turning to A94G A126G, the self-cleavage was determined as 1.3.
